Measured values: US7989587B2, “SSX-2 peptides presented by HLA class II molecules” (Ludwig Institute for Cancer Research Ltd., priority 1999, dated 2011)

Legend:
Format in all cases: cell-based, human
[1] = system: T cells; assay: BrdU proliferation assay of T cells with peptide or protein loaded autologous dendritic cells
Protocol: The peptides were then combined with autologous dendritic cells. These were obtained by isolating peripheral blood mononuclear cells (“PBMCs”), from HLA-DR+donors, using Ficoll-Hypaque methods. These PBMCs were then incubated for 1-2 hours at 37° C., on plastic surfaces. Adherent monocytes were then cultured for 5 days in medium that had been supplemented with interleukin-4 (IL-4) and GM-CSF. To elaborate, AIMV medium supplemented with 1000 U/ml of IL-4, and 1000 U/ml of GM-CSF was used. This incubation stimulates differentiation into dendritic cells.
Samples of dendritic cells (8×10^5) were then loaded with 50 μg/ml of […] added peptide. The loading proceeded for 2 hours, at 37° C., in medium supplemented with 1000 U/ml of TNF-α and 10,000 U/ml of IL-1β. Peptide pulsed dendritic cells were then washed twice, in excess peptide free medium. Then, autologous peripheral blood lymphocytes (4×10^7) were combined with 8×10^5 peptide loaded dendritic cells (ratio of 50:1), in medium which contained 5 ng/ml of IL-7 and 20 U/ml of IL-2. Incubation was carried out at 37° C.
Cultures were restimulated weekly with peptide loaded, irradiated PBMCs.
The ability of the peptides to form complexes with HLA-DR molecules and to stimulate CD4^+ cell proliferation was determined by measuring BrdU uptake.
The specificity of the resulting CD4^+ cells was then tested by combing them with autologous dendritic cells that had been loaded with peptide, admixed with full length recombinant SSX-2 protein, or with an unrelated protein.
The results presented in Example 4 led to additional experiments using T cells that had been isolated from two donors using standard protocols. In these experiments, autologous dendritic cells were prepared, as described, and combined with T cells whose proliferation was determined in a BrdU assay. […] The SSX-2 full length molecule provoked just slightly less than 60% proliferation, while the peptide mixture provoked about 85% proliferation.

[2] = system: CD4^+ T-cells; assay: IFN-γ ELISPOT assay of peptide-primed CD4+ T-cells; details: T-cells prestimulated with p45-59; autologous and allogeneic DC
Protocol: PBMC from patients were isolated by Ficoll-Paque™ PLUS separation (Amersham Pharmacia Biotech AB, Uppsala, Sweden). For in-vitro priming, 1×10^7 and 2×10^6 unseparated PBMC, respectively, were suspended in 500 μl serum-free medium (X-Vivo 15 (Biowhittaker Europe s.p.r.l., Verviers, Belgium) supplemented with 2 mM L-glutamine (Gibco) and 1% penicillin/streptomycin (Gibco). For pulsing, the pool of the 3 SSX2-derived peptides (each at a concentration of 2 μg/ml) was added to the suspension of 1×10^7 cells, while the suspension of 2×10^6 PBMC was pulsed with the mix of 7 peptides (each at 2 μg/ml) derived from the pp65 antigen of the human CMV. Pulsing was performed for 90-120 minutes at 37° C. Thereafter the pulsed cells were washed once with serum-free medium and suspended for cultivation in X-Vivo 15 T-cell medium (Biowhittaker) supplemented with 10% human AB serum (Biowhittaker) and 6.7 ng/ml IL-7 (R&D systems). The 1×10^7 SSX2-pulsed PBMC were suspended in 3.75 ml T-cell medium and plated into 5 wells (0.75 ml/well) of a 48-well Nuncclone™ plate (Nunc GmbH & Co KG.). The 2×10^6 pp65-pulsed PBMC were plated into 1 well (0.75 ml). The remaining PBMC from the patients or donors, respectively, were divided into at least 3 aliquots of 1×10^7 PBMC and frozen until used for restimulation and in the T-cell assays. The peptide-pulsed PBMC which served both as APC and as a source for the T-cells to be used in the ELISPOT assay, were cultured at 37° C. One day after the stimulation was started, each well was supplemented with 250 μl X-Vivo 15 medium supplemented with 80 U/ml IL-2 (R&D Systems) resulting in a final concentration of 20 U/ml IL-2. The cells were incubated for 6 days under occasional microscopic control. On day 7 and before each ELISPOT assay, respectively, the percentage of CD4^+ T-cells in the culture well was determined. On day 7, cells were restimulated with autologous PBMC that had been pulsed with the appropriate peptides under the same conditions as described for day 0/1 at a CD4^+/APC ratio of 1:1. On day 14, the first ELISPOT assay was performed. To this end, the cultured cells were harvested from the respective wells and the primed CD4^+ cells were used as effectors in the ELISPOT assay. The remaining cells were restimulated once more using conditions as described before. […] no specific reactivity was shown by day 21, the stimulation was repeated weekly until all CD4^+ cells were consumed.
At least three IFN-γ ELISPOT assays were performed on days 14, 21 and 28, respectively. All tests were run in triplicates in order to determine mean values and standard deviations. Assays were performed in nitrocellulose-lined 96-well plates (MAHA S45 by Millipore, Bedford Mass., USA). The wells were pre-coated overnight with PBS (50 μl/well) containing an anti-IFN-γ capture antibody at the dilution recommended in the supplier's instructions (Mabtech AB, Nacka, Sweden). To block unspecific binding, the wells were then incubated with 10% human AB^+ serum for 1 h at 37° C. For the priming of effector cells, 2.5×10^4 CD4^+ T-cell were harvested, washed once to remove the cytokines, and were tested for specific recognition of the corresponding antigen. To this end, peptide-primed CD4^+ cells were harvested, washed once to remove cytokines, resuspended, and 50 μl of the cell suspension in X-Vivo 15 medium were added to each well. […]

[3] = system: SSX-2 37-51 specific DR3 restricted CD4+ T cells; assay: Recognition of recombinant protein loaded EBV cells, IFN-γ ELISA; details: FIG. 9C, FIG. 10C
Protocol: For intracellular cytokine secretion detection, T cells were stimulated in the absence or in the presence of peptides at the indicated dose during 4 h as described previously (Ayyoub M, et al., J Clin Invest., 2004; 113 (8): 1225-33, see examples above). One hour after the beginning of the incubation, Brefeldin A ([…], Sigma) was added to inhibit cytokine secretion. After incubation, cells were stained with anti-CD4 mAb (BD Biosciences, San Diego, Calif.) for 20 min at 4° C. and fixed using formaldehyde, permeabilized with saponine (Sigma, 0.1% in PBS 5% FCS), stained with anti IFN-γ mAb (BD Biosciences) and analyzed by flow cytometry. Data analysis was performed using Cell Quest software. IFN-γ secretion was assessed as described (Ayyoub M, et al., J Clin Invest., 2004; 113 (8): 1225-33). T cells (10,000/well) and EBV transformed B cells (EBV) used as antigen-presenting cells (APC, 10,000/well) were incubated in the absence or in the presence of peptides at the indicated dose in 96-well round-bottom plates in […] of medium. In some experiments tumor cells were used as APC. […] After 24 h incubation at 37° C., culture supernants were collected and the content of IFN-g determined by ELISA (BioSource International, Camarillo, Calif., USA). […]

B1: SSX-2 full length molecule: full length recombinant SSX-2 protein (protein, UniProt Q16385 1-188, looked up)
chain: MNGDDAFARRPTVGAQIPEKIQKAFDDIAKYFSKEEWEKMKASEKIFYVYMKRKYEAMTKLGFKATLPPFMCNKRAEDFQGNDLDNDPNRGNQVERPQMTFGRLQGISPKIMPKKPAEEGNDSEEVPEASGPQNDGKELCPPGKPTTSEKIHERSGPKRGEHAWTHRLRERKQLVIYEEISDPEEDDE
modifications: full-length
notes: full length recombinant SSX-2 protein
**Q.** For B1, which proliferation ([1]; first set of experiments, mixture of the 5 peptides of Example 4 compared to equal amount of protein) is on record?
**A.** less than 60%

**Q.** And the “T cell proliferation induced by pulsed dendritic cells” value ([1]; six individual experiments, versus other peptides or TALL)?
**A.** greater T cell proliferation

**Q.** What about the “T-cell response to dendritic cells pulsed with whole protein” value [2] of the same molecule?
**A.** induced a significant T-cell response

**Q.** What about the “processing and presentation of recombinant protein by DR3+ EBV cells, recognition by specific CD4+ T cells” value [3] of the same molecule?
**A.** efficiently process
